Measured values published in patent US20250051455A1 (Hoffmann-La Roche, published 2025).
Numbering of substitutions follows the chain as printed.

B1: HLA-G-0090 (antibody, V domains shown)
VH: QVQLQQSGPGLLKPSQTLSLTCAISGDSVSSNRAAWNWIRQSPSRGLEWLGRTYYRSKWYNDYAVSVQGRITLIPDTSKNQFSLRLNSVTPEDTAVYYCASVRAVAPFDYWGQGVLVTVSS
VL: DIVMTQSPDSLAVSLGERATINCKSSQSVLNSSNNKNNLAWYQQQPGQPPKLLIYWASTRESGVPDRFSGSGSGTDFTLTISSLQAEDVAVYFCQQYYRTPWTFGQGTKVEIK
notes: Human antibody from humanized OmniRat (OMT) rats
B2: HLA-G-0031 (antibody, V domains shown)
VH: QVKLMQSGAALVKPGTSVKMSCNASGYTFTDYWVSWVKQSHGKRLEWVGEISPNSGASNFDENFKDKATLTVDKSTSTAYMELSRLTSEDSAIYYCTRSSHGSFRWFAYWGQGTLVTVSS
VL: AIVLNQSPSSIVASQGEKVTITCRASSSVSSNHLHWYQQKPGAFPKFVIYSTSQRASGIPSRFSGSGSGTSYSFTISRVEAEDVATYYCQQGSSNPYTFGAGTKLELK
notes: Rat monoclonal antibody obtained from CD rats
B3: HLA-G-0039 (antibody, V domains shown)
VH: EVQLLESGGGLVQPGGSLRLSCAASGFTFSSYAMNWVRQAPGKGLEWVSVISGSGVSTYYADSVKGRFTISRDNSRNTLSLQMNSLRAEDTAVYYCAKDGSYNYGYGDYFDYWGQGTLVTVSS
VL: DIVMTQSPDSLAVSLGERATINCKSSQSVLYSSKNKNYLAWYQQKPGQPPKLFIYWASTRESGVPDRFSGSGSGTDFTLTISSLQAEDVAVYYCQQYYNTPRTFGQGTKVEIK
notes: as for B1
B4: HLA-G-0041 (antibody, V domains shown)
VH: B3 VH with S31T, A33G, N35S, S54G, R76K, S80Y, S85R
VL: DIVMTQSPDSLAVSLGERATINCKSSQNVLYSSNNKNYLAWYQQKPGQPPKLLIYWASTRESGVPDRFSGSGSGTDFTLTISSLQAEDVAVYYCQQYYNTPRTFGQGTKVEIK
notes: as for B1

Target: T1, recombinant soluble human HLA-G β2M MHC class I complex, monomer (human)
T1 construct: His tagged; biotinylated where coated on streptavidin plates, non-biotinylated in SPR; also called HLA-G-0003; wt HLA-G (monomer)
Assay: SPR Biacore T200, antibody captured via anti-Fc, HLA-G monomer as analyte, 25 C
Protocol: Binding kinetics of anti-HLA-G antibodies to human HLA-G, human HLA-G degrafted and human HLA-A2 were investigated by surface plasmon resonance using a BIACORE T200 instrument (GE Healthcare). All experiments were performed at 25° C. using PBS Buffer (pH 7.4+0.05% Tween20) as running buffer and PBS Buffer (+0.1% BSA) as dilution buffer. Anti-human Fc (JIR009-005-098, Jackson) or anti-rat Fc (JIR112-005-071, Jackson) or anti-Mouse Fc (JIR115-005-071, Jackson) antibodies were immobilized on a Series S CM5 Sensor Chip (GE Healthcare) at pH 5.0 by using an amine coupling kit supplied by GE Healthcare. Anti-HLA-G antibodies were captured on the surface leading to a capturing response of 50-200 RU. HLA-G molecules were injected for 180 s at 30 μl/min with concentrations from 2.5 up to 800 nM (2×1:2 and 4×1:3 dilution series) onto the surface (association phase). The dissociation phase was monitored for 300-600 sec by washing with running buffer. The surface was regenerated by injecting H3PO4 (0,85%) for 60+30 seconds for anti-human Fc capturing antibodies, glycine pH1,5 for 60 seconds and glycine pH2,0 for 60 seconds for anti-rat Fc capturing antibodies, H3PO4 (0,85%) for 80+60 seconds for anti-mouse Fc capturing antibodies. Bulk refractive index differences were corrected by subtracting the response obtained from a mock surface. Blank injections were subtracted (double referencing). The derived curves were fitted to a 1:1 Langmuir binding model using the BIAevaluation software.
The above table summarizes the antibody affinities and t½ values against wt and degrafted HLA-G as assessed by Surface plasmon resonance (Biacore) analysis. Binding kinetics of anti-HLA-G antibodies to human HLA-G and human HLA-G degrafted were investigated by surface plasmon resonance using a BIACORE T200 instrument (GE Healthcare). All experiments were performed at 25° C. using PBS Buffer (pH 7.4+0.05% Tween20) as running buffer and PBS Buffer (+0.1% BSA) as dilution buffer. Anti-human Fc (JIR009-005-098, Jackson) or anti-rat Fc (JIR112-005-071, Jackson) or anti-Mouse Fc (JIR115-005-071, Jackson) antibodies were immobilized on a Series S CM5 Sensor Chip (GE Healthcare) at pH 5.0 by using an amine coupling kit supplied by GE Healthcare.

Binder | Kd | koff | kon | t 1/2
B1 | 3.6 nM | 0.00085 s⁻¹ | 230000 M⁻¹ s⁻¹ | 14 min
B2 | 75 nM | 0.0037 s⁻¹ | 49000 M⁻¹ s⁻¹ | 3 min
B3 | 0.95 nM | 0.00044 s⁻¹ | 460000 M⁻¹ s⁻¹ | 27 min
B4 | 1.3 nM | 0.00049 s⁻¹ | 380000 M⁻¹ s⁻¹ | 23 min

Target: T1, recombinant soluble human HLA-G β2M MHC …
Assay: ELISA, biotinylated wt HLA-G monomer on streptavidin plate
Protocol: (§1) Streptavidin coated plates (Nunc, MicroCoat #11974998001) were coated with 25 μl/well biotinylated human wt HLA-G at a concentration of 250 ng/ml and incubated at 4° C. overnight. After washing (3×90 μl/well with PBST-buffer) 25 μl anti-HLA-G samples (1:3 dilution in OSEP buffer) or reference antibody (G233, Thermo/Pierce #MA1-19449, 500 ng/ml) were added and incubated 1 h at RT. After washing (3×90 μl/well with PBST-buffer) 25 μl/well goat-anti-mouse H+L-POD (Biorad #170-6561, 1:2000 in OSEP) or donkey-anti-rabbit IgG POD (GE #NA9340V, 1:5000 in OSE) was added and incubated at RT for 1 h on shaker. For detection of rat IgGs a mixture of goat-anti-rat IgG1-POD (Bethyl #A110-106P), goat-anti-rat IgG2a-POD (Bethyl #A110-109P) and goat-anti-rat IgG2b-POD (Bethyl #A110-111P) 1:10000 in OSEP was added and incubated at RT for 1 h on shaker. After washing (6×90 μl/well with PBST-buffer) 25 μl/well TMB substrate (Roche, 11835033001) was added and incubated until OD 2-3. Measurement took place on a Tecan Safire 2 instrument at 370/492 nm.
(§2) The above table summarizes the binding of different rat anti-human HLA-G monoclonal antibodies, derived from wt protein IMS both of wt as well as OMT rats. Shown are the relative EC50 values [ng/ml] and maximal OD of the respective binding to rec. wt monomeric HLA-G protein or the socalled gegrafted HLA-G (HLA-A consensus sequence on HLA-G backbone) protein as assessed by ELISA. The ELISA was set up by coating the biotinylated wt HLA-G or consensus antigen to strepdavidin plates. After incubation and washing steps, the respective antibodies were bound in a concentration range from 10-0 μg in 1:2 dilution steps. Detection of bound antibodies was carried out by anti-Fc-antibody-POD conjugates. EC50 values were determined from the resulting binding curves at the antibody concentrations generating the half-maximal signal.

Binder | Max. OD
B1 | 3.4 OD
B2 | 1.6 OD
B3 | 1.4 OD
B4 | 2.3 OD

Target: T2, modified human HLA-G β2M MHC class I complex (HLA-G specific amino acids replaced by HLA-A consensus amino … (human))
T2 construct: Counter antigen: single-chain fusion of peptide, beta-2 microglobulin and HLA-G in which 14 HLA-G unique surface positions were mutated to an HLA-A consensus; also called degrafted HLA-G; HLA-G-0007
Assay: ELISA, biotinylated degrafted HLA-G on streptavidin plate
Protocol: as §1, with “degrafted” for “wt”, “rat serum (1:600 dilution in OSEP)” for “reference antibody (G233, Thermo/Pierce #MA1-19449, 500 ng/ml)”, “μl/well” for “μl/well goat-anti-mouse H+L-POD (Biorad #170-6561, 1:2000 in OSEP) or donkey-anti-rabbit IgG POD (GE #NA9340V, 1:5000 in OSE) was added and incubated at RT for 1 h on shaker. For detection”, “of” for “of rat IgGs”
as §2

Binder | Max. OD
B1 | 0.2 OD
B2 | 0.13 OD
B3 | 0.13 OD
B4 | 0.15 OD

Target: T1, recombinant soluble human HLA-G β2M MHC …
Assay: blocking ELISA on biotinylated wt HLA-G; competitor ILT-4

Binder | % inh. ILT4 (3 µg/ml antibody)
B2 | 39.8%
B3 | 23.9%
B4 | 18.4%
